± gives the uncertainty stated by the source.
Test: amyloid nucleation score (Sup35N fusion, yeast selection) (log enrichment); library NNK3; higher = more nucleation; inactive = no reads after selection
Summary of the method: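 In psi-negative yeast, Sup35N fusions carrying peptides of 20 random codons were induced with 100 μM copper sulfate for 24 hours. The cells then grew 7 days at 30°C on medium lacking adenine and uracil, and plasmid inserts from input and output were Illumina-sequenced, excluding sequences with under 100 input reads. Nucleation score is the DiMSum log enrichment of output over input reads, centred on the mode score of non-aggregating sequences.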

| Substance | amyloid nucleation score |
| --- | --- |
| RDCCYLTFALVPSHGLLKVK | inactive |
| RDCSSAIYKCTWCMSF | inactive |
| RDFITRSSECSESD | inactive |
| RDGNRVQMVSIPIQVSAMLG | inactive |
| RDLKFGWGWMGRTEISWYLF | inactive |
| RDNYDAFMIL | inactive |
| RDQEHSRTFISM | inactive |
| RDYLYGNDMSNVKGYRRRWY | inactive |
| REITSWLDIDFL | inactive |
| RERVATFQQPTRHGGGSLAS | inactive |
| REVPT | inactive |
| REWIGLSTYDSA | inactive |
| RFATGCDYLLRRW | inactive |
| RFFLYFNCAWVILMWCKRIV | inactive |
| RFGDVHDCVVVSNGNLRNES | inactive |
| RFISLVRNYFFTCCRRRSMF | inactive |
| RFLLVVMF | inactive |
| RFNFNFFRSRSHLSVFTQFG | inactive |
| RFNHMRNGFWRSIS | inactive |
| RFRFILRCC | inactive |
| RFSSSSQPFYSFAIVRR | inactive |
| RFSTQAENGVSIIFNLVCFN | 2.8 ± 0.082 |
| RFSYVVTRSG | inactive |

| Substance | amyloid nucleation score |
| --- | --- |
| RFVTSLYDMLSI | inactive |
| RGAGSTESLTNGRGSIAIHR | inactive |
| RGANYVFGWKITVNAFEGEC | 0.838 ± 0.14 |
| RGFFSHWSFDVTHYVLVRTL | inactive |
| RGIKWWILDFWVDMHTCMFK | inactive |
| RGKYFGCYLSVYSHL | inactive |
| RGLHLGSSTWIPTAREC | 0.678 ± 0.19 |
| RGQGKHNSRYFCLIT | inactive |
| RGRMLDHGSS | inactive |
| RGTSSQ | inactive |
| RGVFLTEEASFIGELSLCSA | inactive |
| RGWVPVTVIQWIMIDCQFKA | 2.78 ± 0.054 |
| RGYEQERLWSSVWHFYNHWL | 0.405 ± 0.23 |
| RGYGTSDRIAALMWLSRWFQ | inactive |
| RGYRAK | 1.34 ± 0.097 |
| RHLTVWLL | inactive |
| RHMPYNGLKNDKIFYILNYT | inactive |
| RHVQG | inactive |
| RHVVGCSYNVIGCFYVVLRI | 1.84 ± 0.083 |
| RICWSDINWYNRIFLIAELC | inactive |
| RIDSMRRMGYLNSIFGCFV | inactive |
| RIFFKVCNVRLSVADFSHYV | 1.99 ± 0.051 |
| RIFSFT | inactive |

| Substance | amyloid nucleation score |
| --- | --- |
| RIGVTYWGICSLKLT | inactive |
| RILALCGHRGNGLQGYILLD | 0.744 ± 0.13 |
| RILRVRF | inactive |
| RILVMVNKG | 0.81 ± 0.17 |
| RINSRHLLNVLAVRKTIQGS | inactive |
| RIRFKRGVPSVVAHVVLR | inactive |
| RIRGTCMGL | inactive |
| RISYKVRHTSNLVKTWCYTW | inactive |
| RITLSIDLLSSEYNRIAPRR | 1.82 ± 0.089 |
| RITPLDCLSNGRQ | inactive |
| RITSDALG | inactive |
| RIVSVFLDNEQISRNGAVSS | -0.425 ± 0.59 |
| RIVYCSFTKVG | inactive |
| RIWPSGSC | inactive |
| RIYDYFLFSCYRV | inactive |
| RIYLA | inactive |
| RKLCINGCVFTAMREFC | inactive |
| RKLSNIYFVIGDGMWGSHGW | 2.32 ± 0.06 |
| RKYGTLCKGCVL | inactive |
| RLAFVHKMTLRMSRERYLAI | -0.009 ± 0.35 |
| RLAGSFKLKSVYKGMLDYLA | 0.819 ± 0.15 |
| RLCLFLDPIY | inactive |
| RLCWLNVDHGLLVNPPWGYR | inactive |

| Substance | amyloid nucleation score |
| --- | --- |
| RLFSFAIFHENTMLGNCCTM | 2.44 ± 0.063 |
| RLGFRRIRIIRSSGFSEEWH | 0.224 ± 0.39 |
| RLIQTLWIFIKVRSRALVTH | inactive |
| RLKLNGAQGEFSGVWLDIWA | inactive |
| RLLFMIPIMIVMNQHPTMNV | 1.01 ± 0.17 |
| RLLHSGRS | inactive |
| RLLNVLKRYLMVSLQKAGSD | inactive |
| RLNLNVIL | 2.58 ± 0.087 |
| RLSNVSTMGGMRIPDLLEM | inactive |
| RLSRWRRSNFSE | inactive |
| RLTWESTMYVKIVGMSYAFG | -0.241 ± 0.36 |
| RLVMHSRHTMLLHARGLRSR | inactive |
| RLVNVNDTGVLDVSVITRCS | 0.207 ± 0.6 |
| RLVPFTWGHIPG | inactive |
| RLWTFCFA | inactive |
| RLYAALMFSSVRLCACVALV | inactive |
| RLYLKTDVSDTRHRYMWLSE | inactive |
| RLYVSKEFRSA | inactive |
| RMAYIENGVDTAACSDLYVL | inactive |
| RMCLITTYTRVFLWLHT | inactive |
| RMGHWCRVAGSKLLGVV | -0.131 ± 1.2 |
| RMGWSTGILCRVDTLFITML | inactive |
| RMIASAFFADCEKYVVNNLE | 0.028 ± 0.43 |

| Substance | amyloid nucleation score |
| --- | --- |
| RMILNMCCTITDRKCHSVSD | 2.39 ± 0.055 |
| RMKGFEFCCWDQ | -0.31 ± 0.55 |
| RMLLVEYCMFDFPDSFVRCN | 0.131 ± 0.23 |
| RMLRNF | -0.466 ± 1.9 |
| RMLTHKQIIIRTVWTQYVYI | inactive |
| RMPNSTFGVGWETGFQHSQG | inactive |
| RMRCAAVRAARAVPATKGEG | inactive |
| RMRLRVSVILGA | 0.997 ± 0.11 |
| RNFVEANAYSFRLVTVTLSM | inactive |
| RNGMISQAYSVP | inactive |
| RNGTHCTIDEIYGW | 0.038 ± 0.58 |
| RNISDMEPS | inactive |
| RNKLFLINWLFYNCMTWAFH | inactive |
| RNLSKIRMPMVVNNTEY | inactive |
| RNNVPGVEYVLDYLFMLKVM | inactive |
| RNVQLMVPFTAGVLWVLQCK | inactive |
| RNVWRCSLPYHFIF | inactive |
| RPAIRSFFVMVSVKLR | inactive |
| RPAWTRTSTVDKLQIELRYE | inactive |
| RPDCEYGSS | inactive |
| RPFKFMKLFHIMCVVDVYCM | inactive |
| RPFNHVDISYAKPLDNFWM | -0.582 ± 0.98 |
| RPPMDEICSNFRSRTLNQSK | inactive |

| Substance | amyloid nucleation score |
| --- | --- |
| RQHFRYHGIFAEFGSTFVRS | inactive |
| RQLFWPTPINNFSVVNGILL | inactive |
| RQTCFIMVSCYPVKNGNSEI | 1.48 ± 0.15 |
| RRARKWLVIDVRVPSLWSMR | inactive |
| RRFRSLKRPAQNLSDALMSG | inactive |
| RRNMYLL | -1.31 ± 2.5 |
| RRSCCLVLTIRVFCRICRDE | inactive |
| RRVFHWYKYCV | inactive |
| RRWGFCTLVIVCRAGCYVLS | inactive |
| RRWPTPVCFNEG | inactive |
| RRYHHFRRECWLVERRIVVF | inactive |
| RSCVCTTESPLSMTGLRRVV | inactive |
| RSDMGSHFHAELLKYEMATM | inactive |
| RSEVAGFHLE | -0.807 ± 1.1 |
| RSEVQHKLVSFLSKLIPRAS | inactive |
| RSGLVRSRCSRI | inactive |
| RSLDRRSCAMHILRGHQLKT | inactive |
| RSLWALSPENRPLGKVS | inactive |
| RSLYMLVNLMYCGTEVRFIC | inactive |
| RSNGPLFQVVITYCVSLPLN | inactive |
| RSNTQGLPQYKC | inactive |
| RSRLAGFSNYFCMKCVIAAG | inactive |
| RSSLNDNRYKCNSGSSVYGS | inactive |

| Substance | amyloid nucleation score |
| --- | --- |
| RSTVLIPWVDNTCTDQSSGW | 0.25 ± 0.21 |
| RSTYTSFRARWKRRANGSGW | inactive |
| RSVKSIDSHMAKESF | inactive |
| RSVVLIPDLFGNL | inactive |
| RSYIKGIFCLSAMRFQCSMS | -0.404 ± 0.78 |
| RSYKRYSSSYLIIWGWVNMC | inactive |
| RSYVTILDAFSWIM | -0.239 ± 0.66 |
| RTCSQTIDIGVRNWINEQIM | inactive |
| RTDLWRIGDVANWIYALP | inactive |
| RTEKMGRDTKRYCVPHINFG | inactive |
| RTGTNS | inactive |
| RTIRFRFIGWWLAIAEDCRG | inactive |
| RTKMLAVRDVHSGYHSTTQC | inactive |
| RTNQLREPRANRWEGLAVLK | inactive |
| RTPLYAVLWVEGGLLPYLL | inactive |
| RTTKSNYTVLLDQNIPLSPT | inactive |
| RTWDLDVGVLRLWVLSIG | inactive |
| RTYYASWENDSMGAVSYCAS | inactive |
| RVCFLRINDGR | 0.06 ± 0.49 |
| RVEAPVMPKRRSIHQCSLKK | inactive |
| RVFRLCIRFSHA | 0.391 ± 0.23 |
| RVFSTFILYGETKFFLVPET | 0.677 ± 0.23 |
